Reference: patent publication US20250270339A1 (Alector, published 2025)

T1: huTfR Apical Domain-Avi-His (human, biotin on the Avi tag (BirA) where captured on streptavidin)
T1 construct: also called huTfR apical Avi-His; hTfR Apical
T1 chain: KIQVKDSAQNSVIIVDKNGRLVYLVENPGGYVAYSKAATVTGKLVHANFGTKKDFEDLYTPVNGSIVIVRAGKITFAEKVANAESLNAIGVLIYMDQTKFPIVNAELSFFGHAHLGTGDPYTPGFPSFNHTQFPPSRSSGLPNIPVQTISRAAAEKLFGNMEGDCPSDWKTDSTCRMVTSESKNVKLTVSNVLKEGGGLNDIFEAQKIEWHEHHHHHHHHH


What was measured:
[1] = target: T2, Full length Mouse TfR on CHO cells (mouse, UniProt Q62351 1-763); assay: FACS, CHO+muTfR
T2 construct: also called CHO + muTfR
T2 sequence (Q62351 whole entry): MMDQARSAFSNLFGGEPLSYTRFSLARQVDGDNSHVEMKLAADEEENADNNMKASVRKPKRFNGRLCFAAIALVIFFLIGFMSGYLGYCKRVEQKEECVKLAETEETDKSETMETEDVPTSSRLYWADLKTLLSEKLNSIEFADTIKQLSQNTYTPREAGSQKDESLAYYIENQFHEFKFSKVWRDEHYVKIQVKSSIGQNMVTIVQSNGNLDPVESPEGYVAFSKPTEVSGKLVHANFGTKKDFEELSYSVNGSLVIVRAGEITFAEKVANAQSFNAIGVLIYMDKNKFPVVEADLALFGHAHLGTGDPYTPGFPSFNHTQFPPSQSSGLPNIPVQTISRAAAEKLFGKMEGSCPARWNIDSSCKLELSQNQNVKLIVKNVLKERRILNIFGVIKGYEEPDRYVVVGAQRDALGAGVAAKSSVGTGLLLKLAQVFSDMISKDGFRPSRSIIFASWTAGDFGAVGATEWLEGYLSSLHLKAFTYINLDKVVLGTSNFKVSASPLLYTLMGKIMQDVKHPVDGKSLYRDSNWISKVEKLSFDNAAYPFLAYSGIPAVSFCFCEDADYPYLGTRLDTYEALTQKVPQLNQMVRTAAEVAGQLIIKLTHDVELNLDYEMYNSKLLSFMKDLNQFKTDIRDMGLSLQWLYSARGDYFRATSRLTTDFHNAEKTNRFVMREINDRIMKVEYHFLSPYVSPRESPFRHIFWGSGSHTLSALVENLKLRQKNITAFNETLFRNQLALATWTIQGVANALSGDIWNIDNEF
Protocol: (§1) A total of 1536 anti-TfR hybridoma supernatants were initially screened for their ability to differentially bind CHO cells overexpressing human or mouse TfR cells compared to CHO parental cells by FACS. Overexpressing cells were harvested, washed and labeled with Pacific Blue, FITC and Pacific Orange dyes (ThermoFisher) to create uniquely barcoded cell populations. Barcoded cells (5×10⁴ of each cell population) were aliquoted into 96-well U-bottom plates and incubated with 50 μl of hybridoma cell culture supernatant or […] of commercially available purified mouse anti-human TfR monoclonal antibody (Sigma Aldrich, Cat #SAB4700515) and rat anti-mouse TfR antibody (Invitrogen, Waltham, MA, Cat #R17217) on ice for 30 minutes. After this primary incubation, the supernatants were removed via centrifugation, the cells were washed twice with 175 μl of ice-cold FACS buffer (PBS+1% FBS+2 mM EDTA), and the cells were then further incubated on ice for 20 minutes with anti-mouse IgG Fc-allophycocyanin (APC) or anti-rat IgG Fc-APC (Jackson Labs, Cat #115-136-071 and Cat #112-136-071, respectively) (diluted 1:1000). Following this secondary antibody incubation, the cells were again washed twice with ice-cold FACS buffer and resuspended in a final volume of 50 μl of FACS buffer. Binding intensity on cells was analyzed using the FACS Canto system (BD Biosciences), and the ratio of APC Mean Fluorescence Intensity (MFI) on each barcoded cell population was determined for each anti-TfR hybridoma supernatant tested.

[2] = target: T3, Full length human TfR on CHO cells (human, UniProt P02786 1-760); assay: FACS MFI, supernatant
T3 construct: also called CHO + huTfR; CHO + hTfR
T3 sequence (P02786 whole entry): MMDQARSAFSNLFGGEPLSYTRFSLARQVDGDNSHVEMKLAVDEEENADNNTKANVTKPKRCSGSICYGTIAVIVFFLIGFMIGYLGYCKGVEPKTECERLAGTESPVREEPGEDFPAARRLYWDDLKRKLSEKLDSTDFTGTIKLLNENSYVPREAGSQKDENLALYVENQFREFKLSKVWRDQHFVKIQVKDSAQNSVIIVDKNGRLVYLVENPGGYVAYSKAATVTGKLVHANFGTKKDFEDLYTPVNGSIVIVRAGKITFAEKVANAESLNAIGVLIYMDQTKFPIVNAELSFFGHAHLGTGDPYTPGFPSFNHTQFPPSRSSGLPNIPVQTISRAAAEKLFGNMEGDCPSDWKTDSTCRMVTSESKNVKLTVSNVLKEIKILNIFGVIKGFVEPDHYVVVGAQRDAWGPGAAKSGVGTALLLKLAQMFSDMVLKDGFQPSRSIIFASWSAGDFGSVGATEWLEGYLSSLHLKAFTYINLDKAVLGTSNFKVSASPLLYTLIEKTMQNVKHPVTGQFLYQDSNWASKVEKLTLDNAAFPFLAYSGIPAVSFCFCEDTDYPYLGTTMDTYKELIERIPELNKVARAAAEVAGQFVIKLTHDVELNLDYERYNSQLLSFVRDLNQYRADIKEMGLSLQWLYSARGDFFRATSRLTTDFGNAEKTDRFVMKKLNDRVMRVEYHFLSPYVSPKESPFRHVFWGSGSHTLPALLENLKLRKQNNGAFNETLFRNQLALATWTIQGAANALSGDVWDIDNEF
Protocol: as §1

[3] = target: T2, Full length Mouse TfR on CHO cells; assay: FACS MFI, supernatant
Protocol: as §1

[4] = target: T1, huTfR Apical Domain-Avi-His; assay: ELISA OD450, supernatant
Protocol: Hybridoma culture supernatants from 319 hybridomas obtained as described above were screened for their ability to bind Avi-His-tagged huTfR ECD, huTfR apical domain, and muTfR ECD (as described in Example 1) as compared to binding to an irrelevant Avi-His-tagged control protein. Briefly, 96-well polystyrene plates were coated with 5 μg/ml of streptavidin (Thermo Fisher, Cat #PI21125) in coating buffer (0.05M carbonate buffer, pH 9.6, Sigma, Cat #C3041) overnight at 4° C. Coated plates were then blocked with ELISA diluent (PBS+0.5% BSA+0.05% Tween20) for one hour. Blocking buffer was removed and Avi-His-tagged human TfR, human TfR apical domain, mouse TfR and an irrelevant Avi-His-tagged protein were added at 1 μg/ml in ELISA diluent and captured for 1 hour at room temperature. After washing three times with 300 μl of PBST (PBS+0.05% Tween20, Thermo 28352), the hybridoma cell culture supernatants were added (50 μl/well) to each well. After 30 minutes of incubation at room temperature, the plates were washed three times with 300 μl of PBST. Anti-mouse IgG Fc-HRP or anti-rat IgG Fc-HRP (Jackson Immunoresearch, Cat #115-035-071 and 112-036-071, respectively) secondary antibodies were diluted 1:5000 in ELISA diluent, added to each well at 50 μl/well, and incubated for 30 minutes at room temperature with shaking. After a final set of washes (3×300 μl in PBST), 50 μl/well of BioFx TMB substrate (Surmodics, Cat #TMBW-1000-01) was added to the wells. The reaction was then quenched after 5-10 mins with 50 μl/well of 2N sulfuric acid. The plates were read for absorbance at 450 nm on a SpectraMax M5 (Molecular Devices, Sunnyvale, CA) using SoftMax Pro software.

Row | Binder | binding result [1] | fold over parental (CHO WT) [2] [fold] | fold over parental (CHO WT) [3] [fold] | ratio over irrelevant protein [4] [fold]
1 | TfR23 (mouse hybridoma antibody) (antibody, V domains shown, mouse IgG in hybridoma supernatant) VH: DVQLQESGPGLVKPSQSLSLTCTVTGYSITSDYAWNWIRQFPGNKLEWMGYISYSGSTSYNPSLKSRISITRDTSKNQFFLQLNSVTTEDTATYYCTSWGYRYLEDYWGQGTSVTVSS VL: QIVLTQSPAIMSASPGERVTMTCSASSSISSLHWYQQKPGTSPKKWIYDTSKLASGVPARFSGSGSGTSYSLAISSMEAEDAATYYCHQRSSYPWTFGGGTKLEIK | no binding | 279 | 1 | 31
2 | TfR28 (mouse hybridoma antibody) (antibody, V domains shown, mouse IgG in hybridoma supernatant) VH: DVQLQESGPGLVKPSQSLSLTCTVTGYSITSDYAWNWIRQFPGNKLEWMGYISYSGSTSYNPSLRSRISITRDTSKNQFFLQLNSVTTEDTATYYCAIRGYRYEEDYWGQGTTLTVSS VL: QIVLTQSPAIMSASPREKVTMTCSASSSISSMHWYQQKPGTSPKRWIYDTSKLASGVPARFSGSGSGTSYSLTISSMEAEDAATYYCHQRSSYPWTFGGGTKLEIK | no binding | 157 | 1 | 30
3 | TfR31 (mouse hybridoma antibody) (antibody, V domains shown, mouse IgG in hybridoma supernatant) VH: DVQLQESGPGLVKPSQSLSLTCTVTGYSITSDYAWNWIRQFPGNKLEWMGYISYSGRTSYNPSLKSRISFTRDTSKNQFFLQLNSVTTEDTATYYCAGWGYRYLEDYWGQGTSVTVSS VL: QIVLTQSPAIMSASPGEKVTMTCSASSSISSMHWYQLKPGTSPKKWIYDTSKLASGVPARFSGSGSGTSYSLTISSMEAEDAATYYCHQRSSYPWTFGGGTKLEIK | no binding | 90 | 1 | 20
4 | TfR25 (mouse hybridoma antibody) (antibody, V domains shown, mouse IgG in hybridoma supernatant) VH: QVQLQQSGPELVKPGTSVKMSCKASGYTFTNYYIHWMKQRPGQGLEWIGWIYPGDGNTHYNERFKGKTTLTADKSSSTVYMFLTSLTSEDSAIYFCAKDKDMPGMDYWGQGTSVTVSS VL: DMVMTQSPSSLTVTAGEKVTMSCKSSQSLFNSENQKNYLTWYQQKPGQPPKLLISWASTRESGVPDRFTGSGSGTDFTLTINSVQAEDLAVYYCQNDYSYPLTFGAGTKLELK | no binding | 135 | 1 | 33
5 | TfR26 (mouse hybridoma antibody) (antibody, V domains shown, mouse IgG in hybridoma supernatant) VH: QVQLHQSGPELVKPGASVKMSCKASGYTFTNYYIHWVKQRPGQGLEWIGWIYPGDGVTHYNEKFKGKTTLTADKSSSTAYMLLSSLTSEDSAIYFCARDKDVPGMDYWGQGTSVTVSS VL: DIVMTQSPSSLTVTSGEKVTMSCKSSQSLLNSENQKNYLTWYQQKPGQPPKLLIYWASTRESGVPDRFTGSGSGPDFTLTISSVQAEDLAVYYCQNDYSYPLTFGAGTKLELK | no binding | 285 | 1 | 35
6 | TfR32 (mouse hybridoma antibody) (antibody, V domains shown, mouse IgG in hybridoma supernatant) VH: QVQLQQSGADLVRPGTSVKVSCKASGNAFSNYLIEWVKQRPGQGLEWIGVINPGSGETNYNEKFKGKATLTADKSSSTAYMQLSSLTSDDSAVYFCAIRYDGPLLDHWGQGTSVTVSS VL: SIVMTQTPKFLLVSAGDRVTITCKASQSVSNDVAWFQQKPGQSPKLLIYYASNRYTGVPDRFTGSGYGTDFTFTIRNVQAEDLAVYFCQQDYISPTFGAGTKLELK | no binding | 137 | 1 | 25
